Test results published in article PMC5314774 (Nucleic Acids Research, 2016).

What was measured:
[1] = molecular target: T1, LAGE3 (bacterial, 6xHIS-GST removed) (human, UniProt Q14657 1-143); test: SEC
T1 sequence: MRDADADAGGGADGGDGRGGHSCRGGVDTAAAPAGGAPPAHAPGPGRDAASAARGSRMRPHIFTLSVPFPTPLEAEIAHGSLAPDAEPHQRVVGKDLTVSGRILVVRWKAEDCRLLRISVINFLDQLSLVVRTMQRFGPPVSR

[2] = molecular target: 4-subunit KEOPS complex (OSGEP, PRPK, TPRKB and LAGE3) (human, UniProt Q9NPF4;Q96S44;Q9Y3C4;Q14657); test: SEC-MALS

B1: C14ORF142 (bacterial, GST removed) (natural protein)
chain: MELLGEYVGQEGKPQKLRVSCEAPGDGDPFQGLLSGVAQMKDMVTELFDPLVQGEVQHRVAAAPDEDLDGDDEDDAEDENNIDNRTNFDGPSAKRPKTPS
- stoichiometry N [1]: 1

B2: C14ORF142 (insect cells, polycistronic KEOPS vector) (natural protein)
chain: MELLGEYVGQEGKPQKLRVSCEAPGDGDPFQGLLSGVAQMKDMVTELFDPLVQGEVQHRVAAAPDEDLDGDDEDDAEDENNIDNRTNFDGPSAKRPKTPS
- stoichiometry N [2]: 1
